Experiment [1] deals with T1, 4H797-bA.
T1 chain: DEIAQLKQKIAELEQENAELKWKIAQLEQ
The experiment in a line: two-hybrid library CCNG1.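 Further: natural log of median RNA to DNA barcode read ratio; higher means stronger binding.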

In experiment [2] the target is T2, 4H687-bA.
T2 chain: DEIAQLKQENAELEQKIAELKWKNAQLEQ
The experiment in a line: two-hybrid library CCNG1.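 Further: natural log of median RNA to DNA barcode read ratio; higher means stronger binding.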

In experiment [3] the target is T3, 4H370-bA.
T3 chain: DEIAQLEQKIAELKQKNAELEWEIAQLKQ
The experiment in a line: two-hybrid library CCNG1.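 Further: natural log of median RNA to DNA barcode read ratio; higher means stronger binding.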

Experiment [4] concerns the target T4, 4H72-bA.
T4 chain: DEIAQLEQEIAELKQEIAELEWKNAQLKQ
Nature of the experiment: two-hybrid library CCNG1.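 Further: natural log of median RNA to DNA barcode read ratio; higher means stronger binding.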

Experiment [5] deals with T5, 4H3782-bA.
T5 chain: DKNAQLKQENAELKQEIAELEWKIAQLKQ
The experiment in a line: two-hybrid library CCNG1.

The target in experiment [6] is T6, 4H607-bA.
T6 chain: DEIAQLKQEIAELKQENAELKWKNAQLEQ
Nature of the experiment: two-hybrid library CCNG1.

In experiment [7] the target is T7, 4H883-bA.
T7 chain: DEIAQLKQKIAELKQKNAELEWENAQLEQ
Nature of the experiment: two-hybrid library CCNG1.

The target in experiment [8] is T8, 4H953-bA.
T8 chain: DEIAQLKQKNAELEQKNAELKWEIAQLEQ
The experiment in a line: two-hybrid library CCNG1.

Experiment [9] deals with T9, 4H918-bA.
T9 chain: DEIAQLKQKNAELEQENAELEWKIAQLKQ
The experiment in a line: two-hybrid library CCNG1.

Experiment [10] addresses T10, 4H4001-bA.
T10 chain: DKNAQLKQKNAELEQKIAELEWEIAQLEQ
The experiment in a line: two-hybrid library CCNG1.

For experiment [11], the target named is T11, 4H3843-bA.
T11 chain: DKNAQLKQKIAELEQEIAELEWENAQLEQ
The experiment in a line: two-hybrid library CCNG1.

Experiment [12] addresses T12, 4H462-bA.
T12 chain: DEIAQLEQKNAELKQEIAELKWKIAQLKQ
The experiment in a line: two-hybrid library CCNG1.

The target of experiment [13] is T13, 4H967-bA.
T13 chain: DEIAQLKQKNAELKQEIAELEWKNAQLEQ
Nature of the experiment: two-hybrid library CCNG1.

Experiment [14] has as its target T14, 4H568-bA.
T14 chain: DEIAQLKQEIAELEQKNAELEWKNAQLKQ
Nature of the experiment: two-hybrid library CCNG1.

Experiment [15] concerns the target T15, O5-bP.
T15 chain: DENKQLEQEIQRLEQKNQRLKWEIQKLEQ
Nature of the experiment: two-hybrid library CCNG1.

Experiment [16] concerns the target T16, O9-bP.
T16 chain: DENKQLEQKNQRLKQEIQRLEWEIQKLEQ
Nature of the experiment: two-hybrid library CCNG1.

Experiment [17] addresses T17, O8-bP.
T17 chain: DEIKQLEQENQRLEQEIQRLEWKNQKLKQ
The experiment in a line: two-hybrid library CCNG1.

The target of experiment [18] is T18, O6-bP.
T18 chain: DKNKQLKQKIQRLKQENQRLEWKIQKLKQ
Nature of the experiment: two-hybrid library CCNG1.

Experiment [19] concerns the target T19, O7-bP.
T19 chain: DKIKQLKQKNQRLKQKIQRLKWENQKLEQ
The experiment in a line: two-hybrid library CCNG1.

Experiment [20] deals with T20, 4H2725-AA.
T20 chain: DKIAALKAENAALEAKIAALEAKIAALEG
Nature of the experiment: two-hybrid library CCmax. Conditions: mean of both orientations.

The target of experiment [21] is T21, 4H909-AA.
T21 chain: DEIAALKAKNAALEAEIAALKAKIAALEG
Nature of the experiment: two-hybrid library CCmax. The following applies: mean of both orientations.

The target in experiment [22] is T22, 4H2389-AA.
T22 chain: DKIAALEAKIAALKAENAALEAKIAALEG
Nature of the experiment: two-hybrid library CCmax. The following applies: mean of both orientations.

The target of experiment [23] is T23, 4H3865-AA.
T23 chain: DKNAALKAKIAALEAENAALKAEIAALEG
Nature of the experiment: two-hybrid library CCmax. Conditions: mean of both orientations.

Experiment [24] deals with T24, 4H745-AA.
T24 chain: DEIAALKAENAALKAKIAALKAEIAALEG
The experiment in a line: two-hybrid library CCmax. Conditions: mean of both orientations.

Experiment [25] addresses T25, 4H3120-AA.
T25 chain: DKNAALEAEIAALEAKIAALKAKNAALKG
Nature of the experiment: two-hybrid library CCmax. The following applies: mean of both orientations.

For experiment [26], the target named is T26, 4H930-AA.
T26 chain: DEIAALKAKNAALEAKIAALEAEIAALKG
Nature of the experiment: two-hybrid library CCmax. Conditions: mean of both orientations.

Experiment [27] deals with T27, 4H3130-AA.
T27 chain: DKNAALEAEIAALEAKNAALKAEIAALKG
The experiment in a line: two-hybrid library CCmax. The following applies: mean of both orientations.

The target of experiment [28] is T28, 4H2649-AA.
T28 chain: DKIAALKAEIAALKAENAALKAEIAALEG
Nature of the experiment: two-hybrid library CCmax. Conditions: mean of both orientations.

The target of experiment [29] is T29, 4H536-AA.
T29 chain: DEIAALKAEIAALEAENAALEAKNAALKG
The experiment in a line: two-hybrid library CCmax. Conditions: mean of both orientations.

In experiment [30] the target is T30, 4H3753-AA.
T30 chain: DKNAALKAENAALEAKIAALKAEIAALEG
The experiment in a line: two-hybrid library CCmax. Conditions: mean of both orientations.

Experiment [31] addresses T31, 4H485-AA.
T31 chain: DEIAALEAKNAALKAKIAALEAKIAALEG
Nature of the experiment: two-hybrid library CCmax. Conditions: mean of both orientations.

The target of experiment [32] is T32, 4H2865-AA.
T32 chain: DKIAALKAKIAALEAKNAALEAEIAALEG
The experiment in a line: two-hybrid library CCmax. Conditions: mean of both orientations.

Experiment [33] concerns the target T33, 4H891-AA.
T33 chain: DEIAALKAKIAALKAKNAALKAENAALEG
Nature of the experiment: two-hybrid library CCmax. Conditions: mean of both orientations.

Experiment [34] addresses T34, 4H3381-AA.
T34 chain: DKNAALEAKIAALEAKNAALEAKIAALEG
The experiment in a line: two-hybrid library CCmax. The following applies: mean of both orientations.

Experiment [35] concerns the target T35, 4H2473-AA.
T35 chain: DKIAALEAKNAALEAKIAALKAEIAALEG
Nature of the experiment: two-hybrid library CCmax. Conditions: mean of both orientations.

In experiment [36] the target is T36, 4H458-AA.
T36 chain: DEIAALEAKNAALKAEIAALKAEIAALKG
The experiment in a line: two-hybrid library CCmax. Conditions: mean of both orientations.

The target of experiment [37] is T37, 4H3009-AA.
T37 chain: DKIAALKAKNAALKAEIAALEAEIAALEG
The experiment in a line: two-hybrid library CCmax. The following applies: mean of both orientations.

The target in experiment [38] is T38, 4H310-AA.
T38 chain: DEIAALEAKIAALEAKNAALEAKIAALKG
Nature of the experiment: two-hybrid library CCmax. Conditions: mean of both orientations.

The target in experiment [39] is T39, 4H2698-AA.
T39 chain: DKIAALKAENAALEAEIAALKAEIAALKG
Nature of the experiment: two-hybrid library CCmax. The following applies: mean of both orientations.

Experiment [40] addresses T40, 4H3016-AA.
T40 chain: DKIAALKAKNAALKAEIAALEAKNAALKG
Nature of the experiment: two-hybrid library CCmax. Conditions: mean of both orientations.

Experiment [41] deals with T41, 4H850-AA.
T41 chain: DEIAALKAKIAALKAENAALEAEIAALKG
Nature of the experiment: two-hybrid library CCmax. The following applies: mean of both orientations.

Experiment [42] deals with T42, 4H3165-AA.
T42 chain: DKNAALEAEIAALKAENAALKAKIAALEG
The experiment in a line: two-hybrid library CCmax. The following applies: mean of both orientations.

Experiment [43] deals with T43, 4H3410-AA.
T43 chain: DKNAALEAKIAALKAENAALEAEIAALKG
The experiment in a line: two-hybrid library CCmax. Conditions: mean of both orientations.

The target in experiment [44] is T44, 4H2253-AA.
T44 chain: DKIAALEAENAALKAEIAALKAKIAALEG
The experiment in a line: two-hybrid library CCmax. Conditions: mean of both orientations.

Experiment [45] deals with T45, 4H2438-AA.
T45 chain: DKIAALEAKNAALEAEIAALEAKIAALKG
Nature of the experiment: two-hybrid library CCmax. Conditions: mean of both orientations.

Experiment [46] addresses T46, 4H570-AA.
T46 chain: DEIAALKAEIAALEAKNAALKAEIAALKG
Nature of the experiment: two-hybrid library CCmax. Conditions: mean of both orientations.

The target in experiment [47] is T47, 4H3590-AA.
T47 chain: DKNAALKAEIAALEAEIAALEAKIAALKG
The experiment in a line: two-hybrid library CCmax. The following applies: mean of both orientations.

The target in experiment [48] is T48, 4H94-AA.
T48 chain: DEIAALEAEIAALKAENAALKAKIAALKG
Nature of the experiment: two-hybrid library CCmax. Conditions: mean of both orientations.

The target of experiment [49] is T49, 4H710-AA.
T49 chain: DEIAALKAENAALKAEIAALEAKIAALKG
Nature of the experiment: two-hybrid library CCmax. The following applies: mean of both orientations.

Experiment [50] addresses T50, 4H2330-AA.
T50 chain: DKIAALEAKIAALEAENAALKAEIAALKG
Nature of the experiment: two-hybrid library CCmax. The following applies: mean of both orientations.

Experiment [51] has as its target T51, 4H2162-AA.
T51 chain: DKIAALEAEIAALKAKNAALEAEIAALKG
The experiment in a line: two-hybrid library CCmax.

In experiment [52] the target is T52, 4H2274-AA.
T52 chain: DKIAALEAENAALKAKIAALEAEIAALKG
Nature of the experiment: two-hybrid library CCmax. The following applies: mean of both orientations.

Experiment [53] concerns the target T53, 4H797-AA.
T53 chain: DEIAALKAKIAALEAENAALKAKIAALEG
The experiment in a line: two-hybrid library CCmax. Conditions: mean of both orientations.

Experiment [54] has as its target T54, 4H629-AA.
T54 chain: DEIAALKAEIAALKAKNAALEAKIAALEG
The experiment in a line: two-hybrid library CCmax. Conditions: mean of both orientations.

The target in experiment [55] is T55, 4H3395-AA.
T55 chain: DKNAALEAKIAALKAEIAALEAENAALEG
The experiment in a line: two-hybrid library CCmax. Conditions: mean of both orientations.

Experiment [56] addresses T56, 4H3697-AA.
T56 chain: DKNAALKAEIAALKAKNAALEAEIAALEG
Nature of the experiment: two-hybrid library CCmax. Conditions: mean of both orientations.

B1: 4H370-bA (peptide)
chain: DEIAQLEQKIAELKQKNAELEWEIAQLKQ
For the molecule B1, the interaction score in experiment [1] is -0.315; in [2], -0.346; in [3], 1.12; in experiment [4], 0.634; in experiment [5], 0.864; in experiment [6] it was -0.647. Further, the interaction score was -0.545 in experiment [7]; -1.39 in experiment [8]; -0.552 in [9]; -0.375 in [10]; -0.261 in [11]; 1.39 in experiment [12]. The interaction score in [13] is -0.217; in experiment [14], 1.81.

B2: O5-bP (peptide)
chain: DENKQLEQEIQRLEQKNQRLKWEIQKLEQ
Consider B2, for which the interaction score in experiment [15] is -1.57; in [16] it was -1.33; in [17] it was -0.837; in [18], 2.35; in experiment [19], -1.28.

B3: 4H2162-AA (peptide)
chain: DKIAALEAEIAALKAKNAALEAEIAALKG
Regarding B3, the interaction score in [20] is -1.72; in [21], -1.18; in [22], -0.128; in [23], -1.59; in experiment [24], -0.859; in [25], -1.44. Moreover, the interaction score in experiment [26] is -1.36; in experiment [27], -0.375; in experiment [28] it was -0.344; in experiment [29], -1.2; in [30] it was -1.93; in experiment [31], -1.06. Moreover, the interaction score is -0.262 in [32]; -1.78 in experiment [33]; -1.58 in experiment [34]; -1.53 in experiment [35]; -0.816 in experiment [36]; -1.18 in [37]. In addition, the interaction score in experiment [38] is -0.523; in experiment [39], -1.79; in experiment [40] it was -2.12; in experiment [41] it was 0.439; in [42], -0.865; in experiment [43] it was -0.231. Besides, the interaction score in experiment [44] is -1.34; in [45], -0.363; in experiment [46], 0.778; in [47], -0.841; in [48] it was -0.0378; in experiment [49], -1.09. The interaction score in experiment [50] is -1.04; in experiment [51], 1.73; in experiment [52], -0.925; in [53], -1.49; in [54], -1.01; in experiment [55], -0.899. In [56], this molecule yielded an interaction score of -0.752.

For the origin of these results see publication PMC10397247.
